Laboratory results published in patent US20240400651A1 (VAL CHUM LIMITED PARTNERSHIP, published 2024).

Target: SARS-CoV-2 receptor binding domain (RBD), residues 319-591 of SARS-CoV-2 S (SARS-CoV-2, UniProt P0DTC2 319-591)
Assay: BLI, mAb on anti-human Fc probe (FIGS. 5A-E)

B1: Mab #1 (antibody, V domains shown)
VH: EVQLVESGPEVKKPGTSVKVPCKASGFTFTSSAVQWVRQARGQRLEWIGWIVVGSGNTNYAQKFQERVTITRDMSTSTAYMELSSLRSEDTAVYYCAAPSCSGGRCYDGFDIWGQGTMVTVSS
VL: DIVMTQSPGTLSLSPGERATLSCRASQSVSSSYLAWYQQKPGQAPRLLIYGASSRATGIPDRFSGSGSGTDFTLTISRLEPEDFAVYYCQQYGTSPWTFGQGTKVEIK
B1: binds.
